This is an account of results in publication doi:10.1101/2025.05.13.653810, “Spatial control of secretory vesicle targeting by the Ync13–Rga7–Rng10 complex during cytokinesis” (bioRxiv, 2025).

In the experiment the target is T1, MBP-Ync13–6xHis (S. pombe, UniProt O13683 1-1237).
T1 construct: Ync13, the S. pombe homolog of Munc13/UNC-13; full-length cDNA between MBP-TEV-GGSGGS and the 6His tag of pET21a; MBP is followed by a TEV site and a GGSGGS linker; also called MBP-Ync13–6His; not shown: MBP, N-terminal, kept; His6, C-terminal, kept
T1 sequence (looked up): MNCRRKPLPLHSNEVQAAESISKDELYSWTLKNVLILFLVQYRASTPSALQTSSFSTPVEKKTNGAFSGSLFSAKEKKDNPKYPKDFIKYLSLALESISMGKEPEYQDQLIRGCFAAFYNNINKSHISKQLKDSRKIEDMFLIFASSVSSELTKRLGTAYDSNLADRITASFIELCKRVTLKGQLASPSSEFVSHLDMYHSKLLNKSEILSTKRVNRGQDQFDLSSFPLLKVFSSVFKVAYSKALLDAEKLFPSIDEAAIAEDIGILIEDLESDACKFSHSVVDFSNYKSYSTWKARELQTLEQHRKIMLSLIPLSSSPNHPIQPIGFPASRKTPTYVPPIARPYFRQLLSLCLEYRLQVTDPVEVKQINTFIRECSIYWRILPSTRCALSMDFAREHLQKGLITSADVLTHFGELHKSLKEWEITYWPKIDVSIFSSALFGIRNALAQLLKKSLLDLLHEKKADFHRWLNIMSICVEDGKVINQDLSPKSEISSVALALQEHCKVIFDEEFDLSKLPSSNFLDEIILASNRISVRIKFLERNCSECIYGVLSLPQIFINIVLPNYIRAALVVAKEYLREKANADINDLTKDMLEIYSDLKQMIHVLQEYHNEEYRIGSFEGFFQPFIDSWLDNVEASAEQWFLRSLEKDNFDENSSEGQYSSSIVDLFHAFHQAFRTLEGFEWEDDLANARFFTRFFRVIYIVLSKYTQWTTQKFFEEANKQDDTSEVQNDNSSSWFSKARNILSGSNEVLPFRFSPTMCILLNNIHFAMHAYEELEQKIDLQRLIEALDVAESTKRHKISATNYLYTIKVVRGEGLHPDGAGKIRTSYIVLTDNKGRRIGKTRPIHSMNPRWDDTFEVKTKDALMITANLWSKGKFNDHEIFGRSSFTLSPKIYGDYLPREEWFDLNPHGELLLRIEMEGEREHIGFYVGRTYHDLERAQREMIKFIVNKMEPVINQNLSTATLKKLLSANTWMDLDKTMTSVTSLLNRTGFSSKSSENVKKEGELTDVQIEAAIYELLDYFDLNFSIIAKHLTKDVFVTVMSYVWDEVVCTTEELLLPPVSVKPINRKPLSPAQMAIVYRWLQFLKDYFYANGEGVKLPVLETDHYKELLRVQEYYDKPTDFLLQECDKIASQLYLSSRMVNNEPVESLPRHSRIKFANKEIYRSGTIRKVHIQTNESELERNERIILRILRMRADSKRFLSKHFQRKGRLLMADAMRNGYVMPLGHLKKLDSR
Briefly: supernatant depletion assay; Rga7–6xHis at 4 μM titrated with MBP-Ync13–6xHis immobilized on Cobalt beads; beads pelleted at 16,000 g, supernatants on Coomassie-stained SDS-PAGE, bound fraction fitted. The note with it: both partners purified.

B1: Rga7–6xHis (natural protein, S. pombe, UniProt O94466 1-695, looked up)
chain: MLSAPSSSTTPASPPTSPPNTTSSDDFAVLKEPKVEAILNSELGLAILNDRIKDYLLTCKELAGFFKKRSILEEESGKNLQKLAKSYLETFQSKHHSPQSFSASVITSMEIHEQLANHSLTLQKTLSAFSDQVIEFHKNAERKRKSIKEYAKKQENAYLEAVMQMDKSKSRFKGAETEYNRALDNKNTGDSQKKVGFFKPKSNAQLTKLEDEARLKAENAESDMHSKIENAQNVQKQLLCIHRPNYIKQFFSLQREIESSLIANYLRYTKLCESNTLLNGLTIRPQKPTPTNCGLQHALDNINANTDFVQYVLHASIKHEDNKNPTDASKTKIIQPPSSYGTGSSAGKTNPPVNPTIKVTAAIPSPLQNTNPAPSTFPNPSVASPAFPNSSTSNPSTAPASASPLASTLKPSTANDTNGSSSSSSSNPRTSSPLASNAENKPPVAQQSPPVLLPTLPPIQTTTIQTSREVAPPPSSINSNRAASPFRPTSVSPQPSSPTKSLLFGARLDAIILREHSNIPNIVMQCTSQVENFGLNLQGIYRVPSSSARVNMLRSQFENNPLLQLHTPEDYENDVHAVADLLKIFFRELREPLIPDNHQRDFIDAGNVEDESRRRDAVHRAINDLPDANYSTIRHLTIHLAKIKENSDVNKMSTNNLAIIWGPTIIKQATIPEISSFSRTIEILIDYCFTIFDYD
notes: Rga7, F-BAR protein and Rho2 GAP of S. pombe; full length, cloned into pET21a between the T7 tag and the 6His tag; also called Rga7–6His; not shown: His6, C-terminal, kept
In the case of B1, binding was put at a Kd of 10 µM.
